Legend:
HIV-gp120 = HIV-gp120 (Human immunodeficiency virus type 1 group M subtype B, UniProt P04578); details: S. gordonii binding to immobilized SRCRP2 in absence and presence of HIV-gp120
Text: Left panel: peptide SRCRP2 (containing DMBT1pbs1) was immobilized on ELISA plates and bacterial binding (S. gordonii) was quantified in the absence and presence of different concentrations of HIV-gp120.

[1] = system: Gram-positive S. mutans and Gram-negative E. coli bacteria; assay: Peptide bacterial binding and aggregation studies; details: synthetic peptides
Method: For quantitative measurements of bacterial aggregation, we added 200 μl peptide stock solution (1 mg/ml in 10% DMSO) diluted with 300 μl TBS containing 0.1% v/v Tween 20 and 1 mM CaCl2 (TBS-TC) to 500 μl of the respective bacterial suspensions to obtain final peptide concentrations of […]. As controls, we used bacterial suspensions, to which 200 μl 10% (v/v %) DMSO in H2O and 300 μl TBS-TC were added. Bacterial aggregation was monitored by measuring the optical density at 700 nm in intervals of 1 min for 1 h in a spectrophotometer (UVICON 930, Kontron Instruments). For the semi-quantitative high-throughput competition assays, we first determined the allowed pH range for DMBT1pbs1-mediated aggregation of S. gordonii and E. coli by using TBS-TC adjusted with either HCl or NaOH. […] For monitoring competitive effects, we preincubated 20 μl of the DMBT1pbs1 stock solution (20 μg) with 20 μl of the respective substance solutions in 48-well microtiter plates at room temperature (RT) for 2 min. As reference served 20 μl 10% (v/v) DMSO solution in H2O mixed with 20 μl of the solvents of the respective substances. Afterwards, 100 μl of S. gordonii or E. coli (resuspended in TBS-TC or TBS-T, respectively, for the calcium-free assays) solution was added simultaneously to each well using a multichannel pipette. […]

Question: GRVEVLYRGSW [DMBT1pbs1] was tested. Which HIV-gp120 binding activity (HIV-gp120) did it give?
Answer: exerts HIV-gp120 binding activity

Question: And the “bacterial binding and aggregation activity (Gram-positive and -negative bacteria)” value [1]?
Answer: sufficient and necessary for interaction with Gram-positive and -negative bacteria
